Measured values: the Human Domainome abundance scans (Beltran et al. 2025)

B1: Friend leukemia integration 1 transcription factor, residues 116 to 197; numbered along this chain, Q01543 (parent)
chain: NMTTNERRVIVPADPTLWTQEHVRQWLEWAIKEYSLMEIDTSFFQNMDGKELCKMNKEDFLRATTLYNTEVLLSHLSYLRES

Variants of: B1
Experiment: abundance fitness (aPCA) (normalised: wild type 0, dead -1); higher = more abundant; growth selection in yeast, the domain comes from the species named
Settings: Homo sapiens

Abundance fitness of substitutions, site by site:
N46: K 0.033 | W -0.114 | M -0.135 | H 0.297 | R 0.066 | L -0.175 | V -0.34 | A -0.077 | P -0.205 | T 0.071 | C -0.153 | Y -0.09 | S -0.087 | I -0.397 | F 0.045 | G -0.089
M37: D 0.021 | N -0.44 | Q -0.242 | T 0.055 | E -0.115 | C -0.317 | G -0.02 | K 0.008 | R -0.055 | S -0.078 | W -0.13 | F 0.187 | Y 0.059 | V 0.066 | P -0.076 | A 0.003 | L -0.001
I31: P -1.22 | G -0.384 | W -0.48 | H -0.034 | M 0.08 | T -0.023 | V -0.001 | L -0.305 | F -0.549 | Q -0.075 | S 0.041 | R 0.063 | K -0.059
K32: D 0.007 | F -0.332 | E 0.003 | P -0.359 | N -0.011 | I -0.189 | W -0.159 | R -0.052 | L -0.169 | H -0.351 | T -0.001 | Q -0.08 | V -0.157 | M -0.209 | C -0.401 | G -0.2
E38: M -0.09 | T -0.145 | Q -0.215 | F -0.329 | N -0.397 | S -0.068 | W -0.349 | I -0.32 | H -0.231 | G -0.131 | C -0.126 | R -0.203 | L -0.04 | V -0.231 | K -0.087
T41: G -0.129 | Y 0.051 | Q -0.076 | V -0.09 | L 0.051 | K 0.011 | P 0.003 | F 0.302 | H -0.14 | N -0.103 | A -0.035 | C 0.015 | E -0.08 | R -0.079 | D 0.063
I39: Q -0.743 | L -0.017 | A -0.259 | G -0.85 | K -1.04 | R -1 | T -0.159 | E -0.261 | V 0.019 | M 0.027 | P -0.654 | C -0.102 | W -0.57 | F -0.112
E33: W -0.382 | H -0.204 | Y -0.278 | R -0.06 | D -0.117 | N -0.354 | L -0.981 | Q -0.055 | S -0.238 | G -0.8 | V -0.435 | T -0.243 | P -0.973 | K -0.021 | F -0.803 | I -0.437
W29: E 0.212 | C -0.041 | D 0.189 | Q 0.084 | A 0.101 | T 0.13 | R 0.003 | H -0.033 | N 0.432 | P -1.01 | S 0.112 | K 0.005 | Y -0.058 | V -0.14 | G 0.168 | L -0.116 | I -0.029
Q45: C -0.081 | K -0.048 | H -0.072 | F -0.102 | P -0.381 | M 0.026 | E 0.045 | L -0.009 | V 0.062 | G -0.04 | S -0.003 | A 0.028 | W 0.056 | Y 0 | T -0.068 | D -0.295 | R 0.091
F44: C -0.117 | R -1.05 | S -0.499 | Q -0.96 | D -0.914 | N -0.875 | I -0.278 | T -0.453 | M -0.331 | P -0.744 | W -0.13 | A -0.095 | G -0.637 | E -0.991 | V -0.21 | H -0.884 | L -0.227
F43: Y -0.013 | T -0.11 | M -0.019 | K -0.118 | H -0.167 | Q 0.004 | D -0.175 | R -0.091 | A -0.063 | C -0.35 | W 0.002 | I -0.164 | L 0.077 | G -0.204 | P -0.052 | V -0.118 | S -0.037
S42: W -0.294 | T 0.023 | V -0.07 | P -0.094 | A -0.037 | N 0.291 | R -0.115 | E -0.352 | D 0.084 | M -0.11 | K -0.223 | L -0.134 | Y -0.264 | H -0.054 | G -0.062
A30: V -0.092 | Q 0.18 | P -1.07 | T -0.058 | E -0.071 | M -0.057 | H -0.162 | R -0.21 | D -0.709 | G -0.253 | K -0.161 | N -0.136 | F -0.287 | C -0.058 | W -0.554 | S 0.031 | I -0.061 | L -0.186
M47: I 0.077 | N -0.285 | L -0.004 | K -0.161 | P -0.706 | A -0.162 | H -0.248 | F -0.293 | R -0.239 | E -1.08 | G -0.848
E28: P -0.745 | Q 0.005 | V -0.035 | M -0.187 | F -0.366 | K 0.058 | Y -0.12 | C 0.009 | T -0.017 | G -0.189 | S -0.123 | W -0.285 | R -0.018 | N -0.377 | L -0.013 | A 0.006 | I 0.141
Y34: S -0.108 | E -0.181 | L -0.227 | W 0.046 | V -0.978 | K -0.032 | R -0.207 | H -0.106 | Q -0.346 | M -0.185 | F 0.109 | T -0.684 | N 0.245 | P -0.897 | A -0.274 | G -0.215
W26: P -1.04 | S -0.402 | T -1.01 | Q -0.818
L36: N -0.742 | K -0.839 | P -0.573 | S -0.566 | I 0.08 | A -0.83 | V -0.21 | E -0.605 | G -0.467 | H -0.521 | T -0.51 | C -0.769 | R -1.04 | D -0.521 | Q -0.603 | F -0.195
L27: Y -0.834 | S -0.438 | F 0.079 | I -0.132 | H -0.463 | D -0.532 | K -0.708 | V 0.035 | W -0.856 | T -0.383 | R -0.876 | E -0.857 | G -0.284 | A -0.229 | C -0.384
D40: T -0.268 | M -0.67 | A -0.486 | S -0.217 | G -0.631 | V -0.892 | W -0.887 | N 0.162 | K -0.276 | E -0.043 | Q -0.252 | L -0.921 | P -0.162 | R -0.469 | I -0.576 | Y -0.686
S35: W -0.509 | M -0.271 | A -0.076 | N 0.011 | T -0.021 | G 0.073 | D -0.02 | C -0.183 | Q -0.105 | P -0.228 | E -0.101 | R -0.156 | F -0.33 | V -0.405 | L -0.335 | H -0.132
